B1: 1ZHC (parent)
chain: HEFRDEISVLKANNPHFDKIFEKHNQLDDDIKTAEQQNASDAEVSHMKKQKLKLKDEIHSMIIEYREK
B2: EEHEE_rd3_1049 (parent)
chain: TTVKLGDIKVTFDNPEKAKKYAQKLAKIYQLTVHVHGDTIHVK

Variants of: B1
Assay: folding stability dG (cDNA display proteolysis); higher = more stable
Conditions: PBS, room temperature

Folding stability dG [kcal/mol]: each site, then its substitutions
H1: A 0.874; F 1.05; Q 0.787; G 0.836; S 1.03; R 0.829; L 1.12; T 0.856; V 0.768; K 0.855; N 0.835; W 1.34; D 1.28; P 0.497; E 1.23; M 1.11; I 0.939; Y 0.73
E2: H 0.917; A 1.29; P 0.82; K 0.746; M 0.855; I 0.998; Q 1.07; L 1.08; N 0.525; F 0.966; D 0.711; G 0.827

Variants of: B2
Assay: as above
Conditions: PBS, room temperature

Folding stability dG [kcal/mol], by site and new letter:
T39: C 2.26; M 1.96; F 1.77; G 0.726; V 2.23; Q 1.36; E 1.82; L 1.81; W 1.55; Y 1.71; A 1.13; K 0.943; D 0.923; I 2.27; S 1.24; N 1.06; R 0.835; P 0.457; H 1.58
V42: Y 0.874; D 0.236; P 0.257; N 0.487; T 0.607; A 0.602; S 0.478; H 0.289; G 0.341; Q 0.328; I 2.02; W 0.918; C 1.79; K 0.386; M 1.7; R 0.284; L 2.83; F 1.95; E 0.303
G37: H 1.05; L 1.31; I 1.04; Y 1.24; K 1.24; T 0.847; P 0.698; R 1.13; M 1.22; Q 1.27; W 1.25; F 1.38; S 1; E 1.3; N 1.3; A 1.28; D 1.22; V 1.05
Q30: P 0.614; R 1.98; H 2.42; V 1.24; E 1.62; L 1.48; Y 1.65; M 1.92; N 2.58; F 1.87; S 2.06; I 1.28; T 1.34; G 3.23; A 1.89; D 2.08; K 2.2; W 1.71
K27: S 1.83; T 1.75; Y 2.13; W 2.05; V 1.61
H34: Q 2.11; P -0.084; R 1.64; C 3.12; F 2.39; T 2.12; N 1.34; K 1.71; L 2.06; M 2.08; I 2.44; G 0.853; W 2.15; V 2.59; A 1.9; S 2.03; E 2.46; D 1.58; Y 2.39
H36: A 2.12; Y 2.19; C 3.31; S 2.19; V 2.61; T 2.07; R 1.96; D 2.58; L 2.34; I 2.73; M 2.46; W 1.99; E 2.66; P 0.039; K 1.96; G 1.16; Q 2.34; N 2.04; F 2.17
L31: Y 1.31; V 1.08; W 1.26; A 1.56; P -0.519; N 0.271; S 0.893; G 1.66; T 1.06; D -0.096; K 0.541; H 0.811; Q 0.409; R 0.613; E 0.002; F 1.49; I 1.05; M 2.18
T32: D 1.33; W 1.48; F 1.81; K 1.63; L 1.6; Q 1.87; E 1.82; S 1.94; A 1.79; G 1.32; Y 1.69; I 2.01; N 1.43; P 0.612; C 2.77; V 2.21; R 1.4; H 1.6; M 1.75
I28: V 1.56; N 1.01; S 1.05; H 1.64; W 2.15; L 2.33; E 1.47; P -0.832; G 0.349; F 2.02; D 1.08; R 2.4; K 2.48; C 2.92; Q 1.88; Y 2.14; M 2.36; T 1.48; A 1.65
H41: Q 1.55; K 1.1; R 1.25; E 2.44; W 2.31; V 2.44; N 1.32; Y 2.6; D 1.49; I 2.58; A 1.26; P 0.283; L 2.17; F 2.37; T 2.23; C 2.41; S 1.65; M 1.86; G 0.476
K43: H 2.19; T 2.48; P 0.706; Y 2.64; L 2.57; Q 2.16; V 2.68; D 1.61; E 1.91; A 2.07; F 2.85; M 2.56; G 2.51; N 1.58; W 2.48; R 2.36; I 2.62; C 3.65; S 2.17
Y29: G 0.581; H 1.31; V 0.558; I 0.716; P 0.516; F 2.11; M 1.26; D -0.065; T 0.658; W 1.67; S 0.482; L 1.87; N 0.582; R 0.806; E 0.087; A 0.547; Q 0.374; K 0.669
V35: R 1.27; H 1.57; F 2.08; T 1.5; Y 2.14; N 1.09; G 0.496; K 1.24; A 1.34; E 1.56; W 1.99; S 1.17; L 1.7; C 2.12; Q 1.78; P 0.957; D 1.57; I 2.26
I40: H 0.576; R 0.214; N 0.239; F 1.6; E 0.224; L 1.66; V 1.3; T 0.449; A 0.282; C 0.854; W 1.28; M 1.16; Y 1.66; G 0.535; Q 0.438; K 0.443; P 0.463; S 0.541; D 0.287
D38: H 1.95; C 2.12; W 1.76; S 2.16; Y 1.47; I 1.6; P 1.42; A 1.94; E 1.47; R 1.86; T 2; N 2.47; M 1.97; Q 1.85; G 1.6; F 1.7; V 1.57; K 1.85; L 1.83
V33: A 0.869; T 1.11; H 0.305; N -0.39; K -0.112; L 2.1; P 0.242; I 2.37; S 0.464; C 2.12; Q 0.334; F 1.6; M 1.78; E 0.147; W 1.85; G 0.145; D -0.143; Y 1.54; R -0.171

Reference: the MegaScale stability set (Tsuboyama et al. 2023)
